To fix the notation:
B1: Control random DNA (dsDNA)
DNA 1: TCGAAGTCGAAGCATGGGTCGAAGCATGGG
DNA 2: CCCATGCTTCGACCCATGCTTCGACTTCGA
B2: Telomere [TTAGGG]5 (dsDNA)
DNA 1: TTAGGGTTAGGGTTAGGGTTAGGGTTAGGG
DNA 2: CCCTAACCCTAACCCTAACCCTAACCCTAA
B3: VEGFA promoter (dsDNA)
DNA 1: GGCGGGGCGGAGCCATGCGCCCCCCCCTTT
DNA 2: AAAGGGGGGGGCGCATGGCTCCGCCCCGCC

The record followed here is publication PMC6882858, “Seryl tRNA synthetase cooperates with POT1 to regulate telomere length and cellular senescence”.

The target in this series is SerRS (seryl-tRNA synthetase) (human, UniProt P49591 1-514). In words: EMSA; 5 mM MgCl2, poly(dG-dC); 20 mM Tris-HCl pH 8.0, 60 mM KCl, 5 mM MgCl2, 0.1 mg/mL BSA, 10 ng/uL poly(dG-dC), 1 mM DTT, 0.8 pmol labeled DNA, 30 min, room temperature; 5% native PAGE. The note with it: protein: recombinant; tags: His6 (pET20b; Ni-NTA); chain copies: 2; label: 5' 32P; blunt.
Sequence of SerRS (seryl-tRNA synthetase) (P49591 whole entry): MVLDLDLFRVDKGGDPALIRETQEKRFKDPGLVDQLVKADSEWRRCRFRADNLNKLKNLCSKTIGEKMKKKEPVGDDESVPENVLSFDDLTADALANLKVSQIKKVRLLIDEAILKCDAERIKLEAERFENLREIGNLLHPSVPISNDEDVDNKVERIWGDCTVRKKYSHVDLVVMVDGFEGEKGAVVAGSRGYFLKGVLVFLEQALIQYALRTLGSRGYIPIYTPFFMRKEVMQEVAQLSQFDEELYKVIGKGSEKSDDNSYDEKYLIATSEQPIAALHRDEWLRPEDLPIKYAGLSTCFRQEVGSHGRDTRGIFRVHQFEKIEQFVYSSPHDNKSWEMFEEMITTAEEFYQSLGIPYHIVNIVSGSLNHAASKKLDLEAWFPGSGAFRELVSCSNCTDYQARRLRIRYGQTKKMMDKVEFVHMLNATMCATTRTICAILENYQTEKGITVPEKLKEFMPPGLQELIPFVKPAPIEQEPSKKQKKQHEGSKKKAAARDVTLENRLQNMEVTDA
As for B1, the binding result is recorded as “no binding”.

For B2, the binding result is “binds”.

In the case of B3, the binding result was “binds”.
